This is an account of results in paper PMC5653825, “Arrhythmogenic cardiomyopathy related DSG2 mutations affect desmosomal cadherin binding kinetics” (Scientific Reports, 2017).

The target in one data set is Dsg2 (Homo sapiens) (UniProt Q14126). Briefly: sedimentation equilibrium AUC. The following applies: cited from earlier work.
Data set [1] concerns the molecule itself. Description: AFM single molecule force spectroscopy; Dsg2 EC1-4 covalently immobilised on both the AFM tip (long PEG linker) and the gold substrate; calcium buffer (2 mM CaCl2, 10 mM HEPES, 150 mM NaCl, pH 7.4); pulling velocities 200 to 5,000 nm s^-1; k- and x from the Evans and Ritchie model, Kd and k+ from the free energy by Jarzynski's equality; monomer to homodimer.

What is called Kd is the concentration at which binding is half-saturated. Turning to Dsg2 (from UniProt Q14126), in the data set with Dsg2 (Homo sapiens), the Kd was 433 µM.

B1: Desmoglein-2 (Dsg2) p.V343I (p.V392I), recombinant extracellular cadherin domains 1-4 (EC1-4) (domain or fragment)
chain: AWITAPVALREGEDLSKKNPIAKIHSDLAEERGLKITYKYTGKGITEPPFGIFVFNKDTGELNVTSILDREETPFFLLTGYALDARGNNVEKPLELRIKVLDINDNEPVFTQDVFVGSVEELSAAHTLVMKINATDADEPNTLNSKISYRIVSLEPAYPPVFYLNKDTGEIYTTSVTLDREEHSSYTLTVEARDGNGEVTDKPVKQAQVQIRILDVNDNIPVVENKVLEGMVEENQVNVEVTRIKVFDADEIGSDNWLANFTFASGNEGGYFHIETDAQTNEGIVTLIKEVDYEEMKNLDFSVIVANKAAFHKSIRSKYKPTPIPIKVKVKNVKEGIHFKSSIISIYVSESMDRSSKGQIIGNFQAFDEDTGLPAHARYVKLEDRDNWISVDSVTSEIKLAKLPDFESRYVQNGTYTVKIVAISEDYPRKTITGTVLINVEDINDNCPTLIEPV
modifications: thiol of the unique cysteine C447 (C496) covalently coupled to the maleimide of a cross-linker (maleimide-PEG-succinimidyl valerate 3,400 on the cantilever; NHS 3-maleimidopropionate on the gold substrate)
For orientation: koff means the rate constant with which the complex falls apart. What is called kon is the second-order rate constant of association. B1: in data set [1], the Kd came out at 1010 µM, the bond lifetime tau was 1.73 s, the koff worked out at 0.58 s⁻¹ and the kon is 573 M⁻¹ s⁻¹.

B2: Desmoglein-2 (Dsg2) p.D105E (p.D154E), recombinant extracellular cadherin domains 1-4 (EC1-4) (domain or fragment)
chain: AWITAPVALREGEDLSKKNPIAKIHSDLAEERGLKITYKYTGKGITEPPFGIFVFNKDTGELNVTSILDREETPFFLLTGYALDARGNNVEKPLELRIKVLDINENEPVFTQDVFVGSVEELSAAHTLVMKINATDADEPNTLNSKISYRIVSLEPAYPPVFYLNKDTGEIYTTSVTLDREEHSSYTLTVEARDGNGEVTDKPVKQAQVQIRILDVNDNIPVVENKVLEGMVEENQVNVEVTRIKVFDADEIGSDNWLANFTFASGNEGGYFHIETDAQTNEGIVTLIKEVDYEEMKNLDFSVIVANKAAFHKSIRSKYKPTPIPIKVKVKNVKEGIHFKSSVISIYVSESMDRSSKGQIIGNFQAFDEDTGLPAHARYVKLEDRDNWISVDSVTSEIKLAKLPDFESRYVQNGTYTVKIVAISEDYPRKTITGTVLINVEDINDNCPTLIEPV
modifications: thiol of the unique cysteine C447 (C496) covalently coupled to the maleimide of a cross-linker (maleimide-PEG-succinimidyl valerate 3,400 on the cantilever; NHS 3-maleimidopropionate on the gold substrate)
Regarding B2, in data set [1], the Kd stood at 817 µM, the bond lifetime tau turned out to be 3.39 s, the koff worked out at 0.3 s⁻¹ and the kon is 361 M⁻¹ s⁻¹.

B3: Desmoglein-2 (Dsg2) wildtype, recombinant extracellular cadherin domains 1-4 (EC1-4) (domain or fragment)
chain: AWITAPVALREGEDLSKKNPIAKIHSDLAEERGLKITYKYTGKGITEPPFGIFVFNKDTGELNVTSILDREETPFFLLTGYALDARGNNVEKPLELRIKVLDINDNEPVFTQDVFVGSVEELSAAHTLVMKINATDADEPNTLNSKISYRIVSLEPAYPPVFYLNKDTGEIYTTSVTLDREEHSSYTLTVEARDGNGEVTDKPVKQAQVQIRILDVNDNIPVVENKVLEGMVEENQVNVEVTRIKVFDADEIGSDNWLANFTFASGNEGGYFHIETDAQTNEGIVTLIKEVDYEEMKNLDFSVIVANKAAFHKSIRSKYKPTPIPIKVKVKNVKEGIHFKSSVISIYVSESMDRSSKGQIIGNFQAFDEDTGLPAHARYVKLEDRDNWISVDSVTSEIKLAKLPDFESRYVQNGTYTVKIVAISEDYPRKTITGTVLINVEDINDNCPTLIEPV
modifications: thiol of the unique cysteine C447 (C496) covalently coupled to the maleimide of a cross-linker (maleimide-PEG-succinimidyl valerate 3,400 on the cantilever; NHS 3-maleimidopropionate on the gold substrate)
B3: in data set [1], the equilibrium dissociation constant (Kd) was found to be 412 µM, the bond lifetime tau is 0.33 s, the koff worked out at 2.99 s⁻¹ and the kon is 7270 M⁻¹ s⁻¹.
